Experimental findings from patent US11311610B2, “Immune-modulating agents and uses therefor” (UNIVERSITY OF TECHNOLOGY SYDNEY, priority 2010, dated 2022) are described below.

Series [1] concerns ATPase activity associated with lysosomal membranes (equivalent to vATPase activity). Kind of series: ATPase activity of enriched lysosomal membranes. In kind it is biochemical, murine. The settings on record: lysosomal membranes from RAW264.7 macrophage lysates. Here is the method:
FIG. 17 is a graphical representation showing that FhHDM-1 P3 inhibits ATPase activity associated with lysosomal membranes in a concentration-dependent manner. A cellular fraction enriched for lysosomes was prepared by sequential centrifugation of RAW264.7 macrophage lysates. The lysosomal membranes were recovered and assayed (with or without HDM peptides) for ATPase activity using a commercially available kit.
FIG. 18 is a diagrammatic representation showing a sequence alignment of various synthetic HDM peptides. The amphipathic helix is shaded in grey as are the mutated residues in peptides nonHP and 2Pro. NonHP is a variant of FhHDM-1 P3 in which the hydrophobic face of the FhHDM-1 amphipathic helix was removed. 2Pro is a variant of FhHDM-1 P3 in which two prolines substitutions were incorporated to disrupt the alpha-helix. Cons_p3 is a consensus peptide corresponding to various FhHDM-1 homologs. All peptides in the alignment were tested for their ability to inhibit the ATPase activity associated with enriched lysosomal membranes (prepared from RAW macrophages). Those with inhibitory activity are shown in bold text.
A cellular fraction enriched for lysosomes was prepared by sequential centrifugation of RAW264.7 macrophage lysates. The lysosome pellet was extracted with water and the resulting lysosomal membranes were recovered and assayed (with or without HDM peptides) for ATPase activity using a commercially available kit.

Series [2] has as its system peritoneal macrophages. Kind of series: IL-10 secretion by peritoneal macrophages of treated NOD mice. In kind it is in vivo. The settings on record: 10 μg i.p. x6, 24 h after last injection, compared to untreated mice. As for the experimental part:
FhHDM-1 was given to female NOD mice aged 4 weeks. 10 μg of FhHDM-1 was delivered i.p. in PBS on alternate days for a total of 6 doses. 24 h after the last injection, macrophages were isolated from the peritoneal lavage and cultured in RPMI supplemented with FCS for 12 h. IL-10 secreted into the media was measured by ELISA.
Female NOD mice (n=6) were given recombinant HDM (10 μg in 100 μL sterile PBS) by intraperitoneal (i.p.) injection on alternate days beginning at 4 weeks of age for a total of 6 injections. Control mice were given 100 μL of sterile PBS on the same days. 24 h after the last injection mice were sacrificed and peritoneal cells harvested by lavage. Macrophages were isolated from peritoneal lavages based upon their adherent properties, and cultured overnight at 37° C. in RPMI supplemented with FCS. The quantity of IL-10 secreted into the media was measured by ELISA.

The test system of another series is RAW macrophages. In words: ATP induced macrophage cell death (LDH release). The format is cell-based, murine. The conditions noted are these: 20 μg/mL pre-treatment 1 h, then ATP 5 mM 2 h. Here is the method: FIG. 16 is a graphical representation showing that FhHDM-1 P3 prevents ATP induced cell death in RAW macrophages. RAW macrophages were pretreated with either FhHDM-1 (20 μg/mL) or FhHDM-1 p3 (20 μg/mL) for 1 h, then washed and cultured in the presence of ATP (5 mM) for 2 h. Cell death (% cytotoxicity) was quantified according to the amount of LDH released by the cells into culture media.
Raw macrophages were pre-treated with either HDM (20 μg/mL) or FhHDM-1 P3 (20 μg/mL) for 1 h, washed and then cultured in the presence of ATP (5 mM) for 2 h. The culture supernatants were collected and assayed for LDH activity with an LDH release kit. The amount of LDH release by cells treated with ATP only was used to represent 100% cytotoxicity.
In general terms: LDH in the medium is a marker of cell lysis.

A further series concerns NOD mice. Kind of series: Diabetes development in NOD mice (blood glucose). The format is in vivo. Here is the method: FIG. 13 is a graphical representation showing that FhHDM-1 protects NOD mice from developing diabetes. FhHDM-1 was given to female NOD mice aged 4 weeks. 10 μg of FhHDM-1 was delivered i.p. in PBS on alternate days for a total of 6 doses. Blood glucose readings were taken weekly and mice with two consecutive readings >14 mmol/L were deemed diabetic.
Female NOD mice (n=10) were given recombinant HDM (10 μg in 100 μL sterile PBS) by intraperitoneal (i.p.) injection on alternate days beginning at 4 weeks of age for a total of 6 injections. Control mice were given 100 μL of sterile PBS on the same days. Blood glucose levels were measured once a week, from the age of 13 weeks, using Accu-check Advantage blood glucose strips (Roche). Animals were sacrificed when they became overtly diabetic; as defined by two random blood glucose concentrations above 12 mM. Statistical analysis of the times the animal was sacrificed was performed using survival analysis.

The next series concerns human monocytes. In words: Activation marker expression on stimulated human monocytes (flow cytometry). The format is cell-based. The settings on record: human monocytes stimulated 40 h with 10 μg/mL. For orientation: In flow cytometry, cells or beads pass a laser one at a time.
The subject of series [3] is primary human macrophages. In words: Proteomics analysis of treated macrophages. The format is cell-based. From the text:
FIG. 11 is a diagrammatic representation showing a Venn diagram of soluble proteins identified in primary human macrophages.

Series [4] has as its system peritoneal macrophages. In words: Alternative activation of peritoneal macrophages in mice (RT-PCR). In kind it is in vivo. The conditions noted are these: Balb/c mice, three i.p. injections of 5 μg. Here is the method:
FIG. 7 is a photographic representation showing the results of a RT-PCR analysis of macrophage RNA isolated from Balb/c mice given three i.p. injections of 5 μg native FhHDM-1 (NFh6) or recombinant FhHDM-1 (FH6).
Balb/c mice were given three intraperitoneal (i.p.) injections of 5 μg native (NFh6) or recombinant FhHDM-1.

Series [5] concerns inflammatory response to bacterial lipopolysaccharide. Kind of series: Inflammatory response to LPS in vivo after HDM pre-treatment. The conditions noted are these: BALB/c mice, 1 μg i.p. 2 h before 1 μg LPS, 4 h later. Here is the method: Female BALB/c mice were given 1 μg of FhHDM-1 i.p. and 2 h later given 1 μg of E. coli LPS i.p. After another 4 h, mice were sacrificed and serum and peritoneal macrophages assessed for the presence of inflammatory cytokines.
Female BALB/c mice (n=5) were given a single intraperitoneal injection of 1 μg of recombinant HDM two hours prior to an intraperitoneal injection of 1 μg of E. coli lipopolysaccharide. Four hours later, mice were sacrificed and blood and peritoneal cells were harvested. Peritoneal macrophages were isolated from lavage fluid based upon their adherent properties, and cultured overnight at 37° C. in RPMI supplemented with FCS. The quantities of inflammatory cytokines in both sera and culture media from macrophages were measured by ELISA.

The mark [6] stands for this setting: of 237 proteins present in both samples.

Take “KARDRAMAYLAKDNLGEKITEVITILLNRL (FhHDM-1 peptide 1 comprising a truncated amphipathic helix contained in FhHDM-1) [FhHDM-1 p1, peptide in which the amphipathic helix is truncated]”: the “ATPase activity associated with lysosomal membranes” value in series [1] is recorded as “did not inhibit ATPase activity”.

B1: FhHDM-1: 90-residue polypeptide from F. hepatica, Helminth Defense Molecule-1 (SEQ ID NO:24); recombinant form minus N-terminal signal peptide, expressed in E. coli (protein, listed as Fasciola hepatica)
chain: MRFIVLLCLAEVLLAAYVEARPSEESREKLRESGRKMVKALRDAVTKAYEKARDRAMAYLAKDNLGEKITEVITILLNRLTDRLEKYAGN
Consider B1, for which the “IL-10 secreted by peritoneal macrophages” value with peritoneal macrophages [2] was “significantly more”. Further, the “LDH release induced by ATP (cytotoxicity of ATP)” value in the series on RAW macrophages was “no significant effect”. For the same molecule, in series [1], the “ATPase activity associated with lysosomal membranes” value is reported as “did not inhibit ATPase activity”. Besides, the “further time the level of protection was sustained” value with NOD mice (after 18 weeks of age) amounted to 7 weeks. The same molecule displayed a normoglycaemic mice in the series on NOD mice (female NOD mice, 10 μg i.p. alternate days x6 from 4 weeks, at 18 weeks of age) of 80%. Further, in the series on human monocytes, the “expression of markers of alternative activation (CD163 and CD206)” value is on record as “increased expression”; the “expression of markers of the classical phenotype (CD86 and HLA-DR)” value is “decreased expression”. Besides, the “lysosomal proteins of primary macrophages” value in series [3] is given as “down-regulates”. For the same molecule, in series [3] (setting [6]), the “number of proteins down-regulated following treatment” value was 44 and the “number of proteins up-regulated following treatment” value is recorded as 42. The “KEGG pathways in primary human macrophages (Table 5)” value in series [3] (proteomic analysis) is given as “down-regulated”. Besides, the “number of proteins uniquely expressed in the treated sample” value in series [3] (versus PBS-treated sample) turned out to be 6. For the same molecule, the “expression of Arg-1 and Ym1 in isolated peritoneal macrophages” value with peritoneal macrophages [4] is recorded as “increased expression”. In series [5], the “IL-12 secreted by peritoneal macrophages” value is listed as “significantly less”, the “TNFα secreted by peritoneal macrophages” value is reported as “significantly less”, the “levels of IL-10 in circulation” value is on record as “significantly reduced” and the “quantity of TNFα in sera” value is recorded as “also reduced this did not reach significance”.
